We go through one substance from patent US10617759B2, “Light-stimulated release of cargo from oligonucleotides” (Trustees of Boston University, priority 2016, dated 2020).

The data set can be described thus: Protein caging and uncaging, particle counting of TEM images. Type of data set: physicochemical. The note with it: low power light irradiation for 60 seconds (302 nm). As for the experimental part:
BSA was directly caged through the reaction of our crosslinker with the surface amino groups on the protein. Streptavidin was indirectly caged by attaching biotin-amine to the nanocage cavity and then subsequently mixing with the protein. […] None were seen tethered to the cage exterior.
TEM samples were prepared by placing 3 μL of sample solution onto a carbon coated grid (FCF400-Cu, Electron Microscopy Sciences) which was previously charged using a plasma etcher (30 seconds of irradiation). After 2 minutes, the solution was wicked away from the grid with filter paper (Whatman 50 hardened). The grid was immediately treated with stain for 30 seconds and excess solution was wicked away. The remaining solution on the grid was evaporated at room temperate prior to imaging. TEM images were acquired with an FEI Tecnai Spirit Transmission Electron Microscope operated at 80 kV. Saturated uranyl formate (in ddH2O prepared freshly before usage) was used for protein caging experiments and 2% uranyl acetate (diluted with ddH2O from 4%, Electron Microscopy Sciences) was used for all other samples.
Protein containing nanocages were created following the general cavity functionalization protocol. 5 equivalents per oligo handle were used. […] The extent of uncaging was analyzed using particle counting of the TEM images. The entirety of each TEM image was analyzed to avoid bias.

streptavidin: the “nanocages containing protein after light irradiation” value is 9% and the uncaging efficiency amounted to 87%.
